Experimental data published in article PMC11939848, “Aptamer-Based Graphene Field-Effect Transistor Biosensor for Cytokine Detection in Undiluted Physiological Media for Cervical Carcinoma Diagnosis”.

Legend:
TNF-alpha [1] = target: T1, TNF-alpha (UniProt P01375 77-233); test: graphene FET (Hill-Langmuir fit); no PEG, 1x PBS; 1x PBS, artificial sweat (10x diluted or undiluted) or undiluted lavage fluid; aptamer immobilized on graphene; pH and temperature not stated; conditions: protein: commercial; chain copies: 3; G-quadruplex, two G-tetrads
TNF-alpha [2] = target: T1, TNF-alpha; test: graphene FET (Hill-Langmuir fit); 1000 Da PEG, 1x PBS; 1x PBS, artificial sweat (10x diluted or undiluted) or undiluted lavage fluid; aptamer immobilized on graphene; pH and temperature not stated; conditions: protein: commercial; chain copies: 3; G-quadruplex, two G-tetrads
TNF-alpha [3] = target: T1, TNF-alpha; test: graphene FET (Hill-Langmuir fit); 2000 Da PEG, 1x PBS; 1x PBS, artificial sweat (10x diluted or undiluted) or undiluted lavage fluid; aptamer immobilized on graphene; pH and temperature not stated; conditions: protein: commercial; chain copies: 3; G-quadruplex, two G-tetrads
IL-6 [4] = target: T2, IL-6 (UniProt P05231 30-212); test: graphene FET (Hill-Langmuir fit); 1000 Da PEG, PBS; 1x PBS, artificial sweat (10x diluted or undiluted) or undiluted lavage fluid; aptamer immobilized on graphene; pH and temperature not stated; conditions: protein: commercial
IL-6 [5] = target: T2, IL-6; test: graphene FET (Hill-Langmuir fit); 2000 Da PEG, PBS; 1x PBS, artificial sweat (10x diluted or undiluted) or undiluted lavage fluid; aptamer immobilized on graphene; pH and temperature not stated; conditions: protein: commercial
IL-6 [6] = target: T2, IL-6; test: graphene FET (Hill-Langmuir fit); 1000 Da PEG, undiluted lavage fluid; 1x PBS, artificial sweat (10x diluted or undiluted) or undiluted lavage fluid; aptamer immobilized on graphene; pH and temperature not stated; conditions: protein: commercial
IL-6 [7] = target: T2, IL-6; test: graphene FET (Hill-Langmuir fit); 2000 Da PEG, undiluted lavage fluid; 1x PBS, artificial sweat (10x diluted or undiluted) or undiluted lavage fluid; aptamer immobilized on graphene; pH and temperature not stated; conditions: protein: commercial

T1 sequence (P01375 77-233): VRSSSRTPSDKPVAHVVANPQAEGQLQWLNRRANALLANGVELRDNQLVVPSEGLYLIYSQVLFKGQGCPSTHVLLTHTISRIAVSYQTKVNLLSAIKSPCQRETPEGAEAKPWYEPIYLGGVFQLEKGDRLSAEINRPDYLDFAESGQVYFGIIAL
T2 sequence (P05231 30-212): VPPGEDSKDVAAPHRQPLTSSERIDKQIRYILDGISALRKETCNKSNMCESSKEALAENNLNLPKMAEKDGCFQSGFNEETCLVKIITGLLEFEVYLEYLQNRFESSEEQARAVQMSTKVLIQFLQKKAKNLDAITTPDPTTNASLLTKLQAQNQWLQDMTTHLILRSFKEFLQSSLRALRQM

| Binder | Kd (TNF-alpha [1]) [nM] | Kd (TNF-alpha [2]) [nM] | Kd (TNF-alpha [3]) [nM] | Kd (IL-6 [4]) [nM] | Kd (IL-6 [5]) [nM] | Kd (IL-6 [6]) [nM] | Kd (IL-6 [7]) [nM] |
| --- | --- | --- | --- | --- | --- | --- | --- |
| TGGTGGATGGCGCAGTCGGCGACAA (ssDNA, 5'-NH2) [TNF-alpha aptamer] | 2.82 ± 0.19 | 1.52 ± 0.35 | 1.21 ± 0.44 | – | – | – | – |
| GGTGGCAGGAGGACTATTTATTTGCTTTTCT (ssDNA, 5'-NH2) [IL-6 aptamer] | – | – | – | 0.084 ± 0.023 | 0.188 ± 0.052 | 0.57 ± 0.096 | 0.194 ± 0.023 |
